In paper PMC6602974 (Nature Communications, 2019):

B1: DH727.2 monoclonal antibody (IgG1) (antibody, V domains shown)
VH: QVQLVQSGAEVKKPGASVKLSCKASGNTFSIYGISWVRQAPGQGLEWMGGIIPPAGLTNYVQRFQGRVTITADTSTTTVYMELSSLTSEDTAVYYCAIRIGRGFDYWGQGVLVTVSS
VL: DIVMTQSPLSLPVTPGETASISCRSSQSLLDSEDGNTYLEWYLQKPGQSPQALIYEASNRASGVPDRFSGSGSDTDFTLKISRVEAEDVGIYYCMQTIEYPFTFGPGTKVDIK
notes: copies: 2 + 2
B2: DH753 monoclonal antibody (IgG1) (antibody, V domains shown)
VH: EVHLVESGGGLVQPGGSLRLSCEVSGLTFSNSWMSWVRQAPGKGLEWVGFIKTKADGGTAAYAESVKGRFTISRDDSKNTVFLQMKSLKTEDTAVYYCQGAVVISHEYIEIWGQGALVTVSS
VL: QSVLTQPPSASEAARKSVTISCSGGSSNIGDDSVSWYQQVPGTAPKLLIYYNDRRASGVSDRFSGSKSGTSASLAINGLQSEDEADYYCAAWDDSLSAYIFGSGTRLTVL
notes: copies: 2 + 2

Target: CH505 transmitted founder gp120 (HIV-1 CH505 transmitted/founder, UniProt M4M3Q1, strain)
Experiment: SPR
Details: both partners purified

Binder | binding result
B1 | binds
B2 | binds
